According to US20240092930A1 (MABWELL SHANGHAI BIOSCIENCE, published 2024):
Values belong to the binder of their own block, whether it stands above or below them.

What was measured:
[1] = molecular target: T1, recombinant mouse Trop-2-his protein (Cat.: 50922-M08H, Beijing Yiqiao Shenzhou Science and Technology Co., … (mouse, UniProt Q8BGV3 25-270)); experiment: ELISA, coated mouse Trop-2-his, purified murine antibody 1 µg/ml
T1 construct: Bought protein; not shown: his tag
T1 sequence (looked up): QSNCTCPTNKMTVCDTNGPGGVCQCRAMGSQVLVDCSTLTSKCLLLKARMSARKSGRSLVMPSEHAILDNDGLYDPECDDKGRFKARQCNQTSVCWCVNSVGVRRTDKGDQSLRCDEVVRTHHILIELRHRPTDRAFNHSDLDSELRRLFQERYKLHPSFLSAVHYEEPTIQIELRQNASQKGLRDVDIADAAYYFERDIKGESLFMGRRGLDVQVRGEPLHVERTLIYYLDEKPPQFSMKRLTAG
Protocol: (§1) Washed with PBS 3 times, the plates were blocked with the added 5% BSA PBS at 37° C. for 60 min, and then washed 3 times with PBST. The 15 purified murine antibodies were diluted to 1 μg/ml with PBS. Controls as follows were set: (1) Positive Control (PC): Sacituzumab (WHO Drug Information (Vol. 31, No. 1, 2017), SEQ ID NO: 39 and SEQ ID NO: 40), a version having murine IgG constant region, […]; (2) Negative Control (NC): an antibody from an irrelevant hybridoma, 1 μg/ml; (3) blank control: PBS. After incubation at 37° C. for 60 min, the plates were washed 4 times with PBST. […] Afterwards, the plates were washed with PBST 4 times, and TMB substrate was added for color development at 37° C. for 10 min. Then 2M HCl was added to stop reaction; and absorbances at 450 nm and at 630 nm (as reference wavelength) were read, and A450 nm-630 nm values of the wells in the plates were recorded.

[2] = molecular target: T1, recombinant mouse Trop-2-his protein …; experiment: ELISA, plate coated with recombinant mouse Trop-2-his, HRP-goat anti-mouse IgG (Fc gamma), OD450/630
Protocol: as §1

[3] = molecular target: T2, recombinant human Trop-2-his protein (ACCESSION NO.: NP_002344.2, AA 1-274) (human, UniProt P09758 27-274); experiment: BLI, antibody on AHC sensor, Trop-2-his 60 nM
T2 construct: range 27-274; also called recombinant human Trop-2 protein; recombinant human Trop-2 extracellular domain; not shown: his tag
T2 sequence (looked up): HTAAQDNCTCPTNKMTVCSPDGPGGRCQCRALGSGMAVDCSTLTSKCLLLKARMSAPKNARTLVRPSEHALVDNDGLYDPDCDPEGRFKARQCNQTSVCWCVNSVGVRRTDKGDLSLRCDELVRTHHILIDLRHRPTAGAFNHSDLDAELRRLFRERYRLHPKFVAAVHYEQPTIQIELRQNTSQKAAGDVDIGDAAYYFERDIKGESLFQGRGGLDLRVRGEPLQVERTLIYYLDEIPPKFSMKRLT
Procedure, shortened: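 Humanized antibodies at 4 μg/ml in PBS captured via Fc on anti-human IgG Fc (AHC) biosensors for 120 s; 60 nM Trop-2-his (AA 1-274) as analyte, 100 s association, 300 s dissociation. Blank-subtracted responses fitted to 1:1 Langmuir model for kinetic constants.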

[4] = molecular target: T3, recombinant cynomolgus Trop-2-his protein (ACCESSION NO.: UniProtKB-A0A2K5UE71, AA 1-272) (cynomolgus, UniProt A0A2K5UE71 1-272); experiment: ELISA, coated cynomolgus Trop-2-his 1 µg/ml
T3 construct: The printed range begins at residue 1; not shown: his tag
T3 sequence: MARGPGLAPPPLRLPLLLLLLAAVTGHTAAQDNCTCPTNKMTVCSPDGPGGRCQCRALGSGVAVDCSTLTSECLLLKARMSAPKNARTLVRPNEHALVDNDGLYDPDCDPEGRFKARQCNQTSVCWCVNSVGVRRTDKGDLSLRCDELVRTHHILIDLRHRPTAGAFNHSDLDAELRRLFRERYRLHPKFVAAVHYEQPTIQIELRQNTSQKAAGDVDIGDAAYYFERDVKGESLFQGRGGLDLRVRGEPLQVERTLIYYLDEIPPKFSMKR
Protocol: (§2) Washed with PBS 3 times, the plates were blocked with the added 5% BSA PBS at 37° C. for 60 min, and then washed 3 times with PBST. Different concentrations of h23-12 (serial dilutions of 14 concentrations obtained through 3-fold serially diluting a solution with an initial concentration of 10 μg/ml), h4-3 (serial dilutions of 12 concentrations obtained through 3-fold serially diluting a solution with an initial concentration of 3 μg/ml), and Sacituzumab (serial dilutions of 12 concentrations obtained through 3-fold serially diluting a solution with an initial concentration of 3 μg/ml) were added into the plates, with each concentration provided in a parallel well. The plates were incubated at 37° C. for 60 min, and then were washed 4 times with PBST. 1:5000 dilution of H1RP-anti-human Fc (Cat.: 109-035-098, Jackson ImmunoResearch) was added into the plates for incubation at 37° C. for 30 min. Afterwards, the plates were washed with PBST 4 times, and TMB substrate was added for color development at 37° C. for 10 min. Then 2M HCl was added to stop reaction; and absorbances at 450 nm and at 630 nm (as reference wavelength) were read, and A450 nm-630 nm values of the wells in the plates were recorded.

[5] = molecular target: T2, recombinant human Trop-2-his protein …; experiment: ELISA, coated human Trop-2-his 1 µg/ml
Protocol: as §2

[6] = molecular target: T1, recombinant mouse Trop-2-his protein …; experiment: ELISA, coated mouse Trop-2-his 1 µg/ml
Protocol: as §2

[7] = molecular target: T2, recombinant human Trop-2-his protein …; experiment: BLI, antibody on AHC sensor, Trop-2-his 23, 30, 45, 60 nM
Protocol: Affinities of the antibodies were determined by an assay including capturing Fc fragments of the antibodies with anti-human IgG Fc capture (AHC) biosensors using Octet QKe system instrument from Fortebio.
For the assay, each of the antibodies (h23-12, h4-3, and control antibody Sacituzumab) was diluted to 4 μg/ml in PBS, and was allowed to flow through the surface of an AHC biosensor (Cat.: 18-0015, PALL) for 120 s. Recombinant human Trop-2-his protein (ACCESSION NO.: NP_002344.2, AA 1-274) was used as a mobile phase. The Trop-2-his protein was used in following concentrations which corresponded to different antibodies: in case of h23-12, the Trop-2 was used in concentrations of 23, 30, 45, and 75 nM; in case of h4-3, it was used in concentrations of 23, 30, 45, and 60 nM; and in case of Sacituzumab, it was used in concentrations of 23, 30, 45, and 75 nM. The binding time was 100 s and the dissociation time was 300 s. When the assay was finished, data from which the response values of blank control had been deducted were fitted to a 1:1 Langmuir binding model using software, and then kinetic constants for antigen-antibody binding were calculated.

binding result [1]: binds
B1: m17-1 (antibody, mouse IgG1, V domains shown)
VH: EVKLVESGGVLVKPGGSLKLSCAASGFTFSDSAMSWVRQTPEKRLEWVASISRGDDTYYPDSVKGRITISRDFARNILYLQMTSLRSEDTAMYYCTRDRFGFAYWGQGTLVTVSA
VL: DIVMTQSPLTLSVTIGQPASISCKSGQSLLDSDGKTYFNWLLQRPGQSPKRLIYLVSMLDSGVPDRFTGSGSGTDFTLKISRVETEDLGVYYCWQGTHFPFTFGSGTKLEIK
notes: also called murine antibody 17-1

B2: PC (antibody, V domains shown)
VH: QVQLQQSGSELKKPGASVKVSCKASGYTFTNYGMNWVKQAPGQGLKWMGWINTYTGEPTYTDDFKGRFAFSLDTSVSTAYLQISSLKADDTAVYFCARGGFGSSYWYFDVWGQGSLVTVSS
VL: DIQLTQSPSSLSASVGDRVSITCKASQDVSIAVAWYQQKPGKAPKLLIYSASYRYTGVPDRFSGSGSGTDFTLTISSLQPEDFAVYYCQQHYITPLTFGAGTKVEIK
notes: not the human IgG1 Sacituzumab m5; also called Positive Control (PC); Sacituzumab, a version having murine IgG constant region; not shown: murine IgG heavy-chain constant region and murine light-chain constant region of this version
binding result [2]: no binding (tested: 1 µg/ml (paragraph 111 prints '1 g/ml'))

Kd [3]: 304 pM | EC50 [4]: 46.1 pM | EC50 [5]: 46.9 pM | binding result [6]: no binding (tested: up to 3 µg/ml) | Kd [7]: 545 pM | koff [7]: 0.000146 s⁻¹ | kon [7]: 267000 M⁻¹ s⁻¹
B3: h4-3-1 (antibody, human IgG1, kappa, V domains shown)
VH: EVQLVQSGPEVKKPGASVKVSCKASGFTFTDYVIGWVRQAPGQGLEWIGEIYLGSGTIYYTEKFKGRVTMTADTSTSTAYMELSSLRSEDTAVYYCARGSIFPFDYWGQGTLVTVSS
VL: DIQLTQSPSSLSASVGDRVTITCSASSSVSYMYWYQQKPGKAPKLLIYDTSTLASGVPSRFSGSGSGTDFTLTISSLQPEDFATYYCQQWSSYPYTFGQGTKLEIKR
notes: also called CDR grafted antibody 4-3
